A protein production outcome set (Wang et al. 2014)

Experiment: label from the status in PepcDB records

Sequence | protein production
MNYECLIGVLSCLLVALPKGNCHSISGLNSTLNLPEIRGDQFLYFGFGSNMLIKRIHIQNPSAVRIGPALLPDYRLDFALESAGWSGSVATIVPTQGDHVWGTLWKIDLSNLPDIDSQEGVSQGIYEPRTVYVKLHGESESTPARAYLLTKQPESNLYELPKDSIPLSRQPSKTYLQCLVKGAIESSVPEDYVQRLRSIKHNGQVNSYLERKLELGGVTL | failed
MNARHARYPFLGDARDAVEEAGVDLARVVTEDDAVVERARERVVSALTDGTIGEPAATVSTRVEVLSYPVARVLVSIVDESVLVRKYATAEADAAYDRFTADESTDTDLKSVSDTTRVSRDTLLSEFDLRAHVHATPDAHTVDVPTYLLLASSLRDDDWRLVNRALDDGRVPVTDAELDTLIREAIRERVADGLPLSVPDQIADALDEPVAAIQDALADLDLTREIDTVVPELFPPCMKHLLDQVQRGDHLPHHARFAITSFLSNVGLSTDEIVDIYEVNPGFGEEMTRYQTDHIQGDSSPTEYTAPSCATMKAYGNCVNPDDLCDAINHPLSYYEVKLDDGDDDDLADWRDREDDDSPD | failed
MLTVTFTVSNTGDRAGAAVPQVYPGFPNTTIDRCVRELKAFRRVELEPGQRQTVTVALTRRDLSYWDILPHPLRSYAVGSILEHHHHHH | failed
MDASDDSLIGRITEVRAGRFAARLLSDEEGFRNEVSLGDEVQHPGQVGTYVSIRNGTFRILALVREVSGGAAGSAAGSAMQLVPLGEFNDKGAFSRGVRRYPVPGAEVHAASPQEINAVFARTRNLRFNPGYLPNHPATGVYLDPSALCSRHFAILGQSGAGKSWTVASLLQRMLASAPRAHIILLDLHGEYCWRGADGVLHSTFPPMATRAMDARELEIPYWLMSFAELVDLLIERDDPAASIQTAFLRETVFELKRRSARELGLEGVSIDAPVYFSLQEVYERFKEANEHRTDFGKTKGPLFGQFDDFLLKLGSRLHDVRYDFLLNPARRTRSESLPDLLRDFVGLGEPRCQISVIDLSPVPFDVRPTVSAQIGRLAFEFNYWNLDRREFPILLVCEEAHTYIPRERATQYEGTRKSMERIAKEGRKYGVGLAVVSQRPHELSETVLSQCGSYICLRISNPDDQAYVRKLVPEGEADLVDVLTALGRGEALILGEATPLPVRCQIFRPDPPPNSNDVDFHKAWNADTANLDIGAIVRRWWNQGR | failed
AIEVEKNNKGINLSFDIEFYPNSFQILQKEYKKIDLIAKLLEKFKKNNILIEGHTEQFGLEEEMHELSEKRARAIGNYLIKMKVKDKDQILFKGWGSQKPKYPKSSPLKAKNRRVEITILN | not failed
MVTYSTFIVIAIYLILTILISWFVNQRSIGNTDFSTGGRQFGWFTAGVSILATYISAMTFIGMPGWVYQSGMEALNIHLNYPIVIFFAVVFFIPVFYRMGFTSIYEYLEHRFGVYARTINSVVFILVQCISSGVILYAIALILIQILPISIVEAIVYITLFTACYTYAGGISTVIWTDMLQSAVLIAGSVAIFVLLLLQVDGVHGVSREQLNIINLQFDLGVDTTLWAGVVAVSFLHMSVYGTNQLIIQRTLATRCEKTAQKSMLLCGYGAFFIYFFFALLGVLLSIFYQERHFTNSNEVILDFVFHHTNPWVIGLIISALAAAAMSTLDSTYNSMATVATFDLYQRFIRRNAPDHHYQAVARKMSLVAAGLVVIPALLAVSNESVLKTIASLTSIFVGIRLGSFVLGLFSNQANEKGVIAGSIISIAAVLGARLMDIAWPWFAPIGTVFFLVSGVVISRYWGDNSIQQQAFIARQKHLFATPTMSQYGLLVFAAVTIAVCAIIPDWLYNALS | failed
MKGLVELGEKAPDFTLPNQDFEPVNLYEVLKRGRPAVLIFFPAAFSPVCTKELCTFRDKMAQLEKANAEVLAISVDSPWCLKKFKDENRLAFNLLSDYNREVIKLYNVYHEDLKGLKMVAKRAVFIVKPDGTVAYKWVTDNPLNEPDYDEVVREANKIAGELVA | not failed
MPFTPVDWAILGIVAISALISLKRGFVKEALSLTTWIIAGVVAWMFGAGLSQYLVNYIETPSARVIASCTILFVATLLVGAMVNFLIGELIRVTGLSGTDRFLGMVFGAARGGLLVVVAVGLLSLGPVQQDQWWQQSRLVPQFLIVADWSKNLILGMSSKWLASGISVPADLPFKEQILPPTLPQDVLGKSSSTK | failed
MVVYPNEEAENGSLRFVDFVNKTFALLGNSPIKKFSLRHEPRLYCVDAYLRWIFTAMEQERGLLELHLYADRYYYPVGIERELFTSNTLVKLTLSGRYDFQVETVFLPALKSLSLSSSFEIGFDKYCNLLDGFPALEELYIREAVSELSNALLSSGTFVKCASIKRLVVFTDCPKFKEDEDHQEPCFIAPSLVYLDYSSYLSENYDLIDLNSLVEARLNLRLLESFNNYGSSDNDGDVYGWDFNVPFDYYGDVTNLVAGITNITTLHLSPDSLEVFHFRCKSIPVFNNLLLNLSIESNKRNGWQVMPLLIRSCPNLHTLVIKGFVHRVTSKCGDACACIPKKQRKIGKKEEISEYGGSFQELEQMRHFLGKLERLETVKVGVHAENNNNNEFLRANLLTLPRLSSKCNNIQFI | failed
MHRFLSGPLSVEQLTVNIAGLSASLQGKKLVHLSDFHYDGLRLSEEMLAEAIAVSNQVQPDLVLLTGDYVTTTPQPIHQLAKRLQKLQSHAGIYAILGNHDLYQKNSKTEITQALTKAGIQVLWNEIAYPLGEELPIVGIVDYYYREFNPQLLFNQLEPTTPRIVLCHNPDTAAMLQGWRVDLQLSGHTHGGQIVIPGLGAVLPYHKKIVRRVPIKIRRLFPLFFKDYFIVRHAEWLQGLHRIGKNQLYVNRGLGTYLPGRLFCPPELTVITLEAE | failed
RRAKALLDFERHDDDELGFRKNDIITIISQKDEHCWVGELNGLRGWFPAKFVEVLDERSKEYSIA | not failed
MFLRTQARFFHATTKKMDFSKMSIVGRIGSEFTEHTSANNNRYLKYSIASQPRRDGQTNWYNITVFNEPQINFLTEYVRKGALVYVEADAANYVFERDDGSKGTTLSLVQKDINLLKNGKKLEDAEGQENAASSE | failed
MVESWALTTPPIDIVNQYLFFIKRKTNYMATYYYALASQKFLLEEEPFEEVLKERRRDYGEKNKEIDFWQVIQPAFLNAPELAEAKAKAPEKNVAIVSTNKSFIVWVKLRLEYVLTGEFEAPSDAIPDPLASLDLEHHHHHH | failed
MKNKLAITKLSNNVFLLLCTALTFTPIANAAEVIELTIAEPSALKPDFIGYNANMMSAMSTNPWDRTELTQLYKNTGTSIIRYPGGTIANNFDWPTGNQIKINSSGEESLGSYDYKISNFKTGYQNAGFEPIFVVNLLTRDLQHTLDGLADATAKSLPINRIELGNEFFLKDEAYVDMFPSGQDYVSKADIWTDAIKAIYPHVEIAYVSTMKKDPRSLEWNEKISQCTKCDAIIIHTYTRSELNPVLPADKSTSYFGTNEEQNQQWQQFITNSGVDIMLAQPFEAWHGYTSLNNLPSDKKIWITEFNMKDGTGPTRNTWAHALFNANQLQSFLTDGRVEIALLHNLITGAKSGSHYLGNTFSGLTIDHGQGDLSSQKYSLSAGGIAMRAFGSVLKGMDTIAKINLSDTPTVSPTGYADYDAIYGWQGSNSANEEQRYLLINTSSVSYTVNTENLTTSNKSVRQYWTKPQTFIHSEEVLSGGMVNSLPTLLKLPAYSITVIGETAIELPSNYQQTLTLTATDDHFTKEANPNGKGQPTASQININNSEGDQSRPHIKFNTNQVKGSIESVTLKVYSESVTDTVSAHKINNEWDEYELTWNTMPTLGEFINSASADKNAWLEINVTASLLKSDSLLSFALTNSLTSLNKFSSKEGNKAPELIITTSNAVINVADTNITKDDANILQYYSNSLADAVSDDDNDKLSFYKTSGPSWLMLWSNGKIEGTPTADDIGENTFAIKVSDNTGQASATTALNLTINVISDAPTNAAPVWNNIQNILQQATENISYNSNILALATDADNDALIFAKVSGPDWLSLSDAGEVTGTATNSDIGENNVIVSVTDGTNNSNEFINNELIITVTAEIAVEPINNAPTWSNENIALELATQEQAYTNNIMTFTNDLDGDILVFAKVSGPQWLTLSEAGDITGTPSGNDIGENIFILSVTDSDSDTAQVINNTFTIIVSTKPEPEPTPKTEEDNSEGGSISFSLLLLCFLRVFTMRNKF | failed
MTKLPATSDIYISFFMFTTNLQPDNLDYRRIVVAHIKKLQRFGYSGFEFPIAPGLPENYAQDLENYTNLRHYLDSEGLENVKISTNVGATRTFDPSSNYPEQRQEALEYLKSRVDITAALGGEIMMGPIVIPYGVFPTTDFNEPIWSDELQEHLKVRYANAQPILDKLGEYAEIKKVKLAIEPITHWETPGPNKLSQLIEFLKGVKSKQVGVVIDSAHEILDGEGPEIFKTQVEYLAQQGRLHYVQVSPPDRGALHTSWLPWKSFLTPIVKVYDGPIAVEIFNAIPAFTNSLRLTRRKFWIPDEDPPNQYPNAYDIADEAIKVTRKELKKIGSK | not failed
MSASRRSGTTDELGPDGPDPERDGPDGADLLAALLDGMDAALCAFDADGVVTHWNREAERILGWTAAEAVGRRGFAGWAVRTADAEDVEARLMTAMQAPGRQVHEFALLTKDGGRVLVRTQSAAVHGPDGKPAGVYCAFSEVHTQIDLERSIALSEALFEDASWGVVLVDADLRPAVVNAHAARALGTGRTTVLGRPLGDLLSQGVEELESALTHVLAEGAPPAPAEMWVSVRTAEGEKRRCWRSGFLRLASPLAEEPVPLGVGWLFQDITEAKQTEQEAALLRFRTNQLHRAARAAAECEDPGEAATVHLDFSLAGFADHALIDRVAGGPVADGDRDGDGPPVRLVRAADTPSGAPGPSLLVGKAELPVWYAEGHPALQCVERAGSVRASAGVSDAERAREWAISRQWPGDAVHALCAVLRSRGRTLGVVTFLRGAGRSQFERADAVYAEDVAVRIAAALDLAGLAGLAGPAGER | failed
MKQKRLTFLLLLISNLFCASAQKWYKPEIDLKVEELLSQMTVEEKLGYIGGIDWMYTKSIDRLGIHRMRMSDGPQGIGTKGKSTAYPATVTLAATWNENLAYQYGKALGRDCRARNINVILGPAVNIYRAPMCGRNFEYMGEDPYLTSRICVGYIKGVQDQGVMATVKHFVANNSDYDRNNISNDIDERTLNEIYFPAYKAAIQEAEVGAIMTSYNLMNGIYTTENPWLLKEVLRNQWGFKGLVMSDWGSTHYCVPAARSGLDLEMAGGEKMNPKDMAYYLKTGDVTMDMVDEKVRHILRILIAFGFKDGTEADKSIALDDPQSVETA | failed
RLPEVAHLLARVHNSELLHRMLRKVGGQSVRPQDFIQQYLQDLPDDLRHHPLMARVLDELRGTAPTLPATDYRVCHGDLNHKNWLLSDRQQLYLVDWDSARFADPASDISMLLCEYVPLSDWQQWLSEYGETMTTALRTRVVWYAKINLLLNIKDNYYRNQYHQMNHEIIFLEELSQYEV | failed
TVASRLSDTKAAGEVKALDDFYKMLQHEPDRAFYGLKQVEKANEAMAIDTLLISDELFRHQDVATRSRYVRLVDSVKENAGTVRIFSSLHVSGEQLSQLTGVAAILRFPVP | not failed
MSTSYQHSGPEFTEAQMQAMVDGLFAGASIGAVCNMQQEQLEAGYALAYNLYTAGNYRDAETMFRALCVYDHNDERYWLGLAGCRQAQGDLAGAIDAYGLAGAASALGDPAPFVHAGICYMKLGDTENARNTFAGVPFIGDPDNDTHAAMHRKAEAMLELLAGERP | failed
MITLEKEKVTVNPDIKVIKRDGRMVTFDSSKIYEAILKASETITPITPLIETKLEEIANRVVAEINDRFSHNIKIYEIQSIVEHELLEANEYAIAQEYINYRTKRDFERSQATDINFTINKLV | failed
MGHILDSRRCALSVTQQQVLDSLARIKSPRGVALPNANVLSAISASDGKVFFSINVDAAEARAWEAVRAEAEAAVRAIPGATTVMVALTAERKPGSAPPPPPTPSRGTPGVQPVHAHKPPQGGGSPMARQSEIPGVAAVIAVASGKGGVGKSTTALNLALGLRDLGLKVGLLDADIYGPSVPRLTGLRDKPELDGERKMIPLRRFGLAIMSIGFLVEEETAMIWRGPMVMSAVTQMLRDVAWGSLDVLVVDMPPGTGDAQLTLAQNVPLKGAVIVSTPQDLSLIDARRGLAMFRKVNVPVLGIVENMSYFQCPHCGTKSDIFGHGGARHEAEKLGVPFLGEIPLHMAIRATSDAGNPVVDSEPDGPHAAIYRAIAGQVRDQLKGAIAAA | failed
